Experimental data as given in patent US20110311550A1 (Scripps Research, published 2011).

Assays:
Assay in all cases: ELISA, lectin-captured E1E2 lysate, Ab 1 ug/ml;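 further: E1E2 captured on Galanthus nivalis lectin-coated plates, bound test antibody read out by an HRP-linked secondary antibody and TMB colour development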
[1] = molecular target: E1E2 complex (H77) with E1 mutation D206A (HCV genotype 1a, isolate H77, UniProt P27958 192-383; P27958 384-746)
[2] = molecular target: E1E2 complex (H77) with E1 mutation N196A/N209A (HCV genotype 1a, isolate H77, UniProt P27958 192-383; P27958 384-746)
[3] = molecular target: E1E2 complex (H77) with E1 mutation W320A (HCV genotype 1a, isolate H77, UniProt P27958 192-383; P27958 384-746)

B1: N4 IgG (antibody, V domains shown)
VH: VQLLEQSGPEVKKPGDSLRISCKMSGDSLVTTWIGWVRQKPGQGLEWMGIINPGDSSTNIYPGDSATRYGPSFQGQVTISIDKSTSTAYLQWNNVKASDTGIYYCARHVPVPISGTFLWREREMHDFGYFDDWGQGTLVIVSS
VL: ELTLTQSPGTLSLSPGERATLSCRASQSVSNNYLAWYQQKPGQAPRLLIYGASSRATGIPDRFSGSGSGTGFTLIISRLEPEDFAVYYCQQYGSSSITFGQGTRLEIKR
notes: also called IgG N4
Binding relative to wt (%) [1]: 17% | Binding relative to wt (%) [2]: 21% | Binding relative to wt (%) [3]: 121%
